Publication PMC11490884 (The Journal of Biological Chemistry, 2024)

T1: ASAP1 SH3 domain (aa. 1083–1147) (mouse, UniProt Q9QWY8 1083-1147)
T1 sequence (looked up): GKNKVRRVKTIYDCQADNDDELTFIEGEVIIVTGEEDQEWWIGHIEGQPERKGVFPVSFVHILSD


Molecular target: T1, ASAP1 SH3 domain (aa. 1083–1147)
Test: ITC

Row | Binder | Kd | fold weakening of the interaction against the wild-type gAnkB peptide | further results
1 | IPPDETQSTQKQHKPSLGIKKPVRRKLKEKQKQKEEGLQASAEKAELKKG (domain or fragment, human, UniProt Q01484 1682-1731, looked up) [gAnkB (aa. 1682–1731)] | ~140 nM |  | 
2 | GIKKPVRRKLKE (peptide, UniProt Q01484 1699-1710, looked up) [12-residue peptide derived from gAnkB (aa. 1699–1710)] | ~190 nM |  | 
3 | GIKKGVRRKLKE (peptide, UniProt Q01484 1699-1710, looked up) [gAnkB peptide P1703G] |  |  | fold decrease of the binding affinity against the wild-type gAnkB peptide: ~3 fold
4 | GIKEPVRRKLKE (peptide, UniProt Q01484 1699-1710, looked up) [gAnkB peptide K1702E] |  | ~264 fold | 
5 | GIKKPVERKLKE (peptide, UniProt Q01484 1699-1710, looked up) [gAnkB peptide R1705E] |  | ~105 fold | 
